From patent publication US12269859B2, “Synthetic immune receptors and methods of use thereof” (Angeles Therapeutics, Inc., priority 2016, dated 2025) come the findings set out here.

This experiment has as its system target antigen-expressing cell line. In words: Jurkat NFAT-GFP assay, coculture with target cell lines expressing the respective target antigen (summary Table 10A). Type of experiment: cell-based, human. On the set-up: key: The signs +/−, +, 2+ etc. after the name of the cell lines indicate the relative degree of positivity on the Jurkat-NFAT-GFP assay as measured by the % GFP positive cells; +: relative degree of positivity on the Jurkat-NFAT-GFP assay as measured by the % GFP positive cells; 2+: relative degree of positivity on the Jurkat-NFAT-GFP assay as measured by the % GFP positive cells. Particulars: relative % GFP positive cells; for NFAT-GFP ASSAY Positive Cell lines: RAJI: SIR-expressing Jurkat-NFAT-GFP cells cocultured with RAJI; for NFAT-GFP ASSAY Positive Cell lines: NALM6: SIR-expressing Jurkat-NFAT-GFP cells cocultured with NALM6. The gist of the method:
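Readout is % GFP+ cells by FACS, graded +/− to 2+ relative to parental reporter cells. Jurkat-NFAT-GFP cells stably transduced with SIR constructs (puromycin-selected) were mixed with target-antigen-expressing cell lines at roughly 1:2 effector:target and cocultured ~4–18 h.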

B1: 012517-Q12 (protein)
chain: MALPVTALLLPLALLLHAARPLEGKPIPNPLLGLDSTGSGEDLKNVFPPEVAVFEPSKAEIAHTQKATLVCLATGFYPDHVELSWWVNGKEVHSGVCTDPQPLKEQPALNDSRYCLSSRLRVSATFWQNPRNHFRCQVQFYGLSENDEWTQDRAKPVTQIVSAEAWGRADCGITSASYHQGVLSATILYEILLGKATLYAVLVSALVLMAMVKRKDSRGRAKRSGSGATNFSLLKQAGDVEENPGPTSMALPVTALLLPLALLLHAARPEIVLTQSPGTLSLSPGERATLSCRASSSVPYIHWYQQKPGQAPRLLIYATSALASGIPDRFSGSGSGTDFTLTISRLEPEDFAVYYCQQWLSNPPTFGQGTKLELKRGGGGSGGGGSGGGGSEVQLVQSGAEVKKPGESLKLSCKGSGRTFTSYNMHWVRQMPGKGLEWMGAIYPLTGDTSYNQKSKLQVTISADKSISTAYLQWSSLKASDTAMYYCARSTYVGGDWQFDVWGKGTTVTVSSTREQKLISEEDGSGIQNPDPAVYQLRDSKSSDKSVCLFTDFDSQTNVSQSKDSDVYITDKCVLDMRSMDFKSNSAVAWSNKSDFACANAFNNSIIPEDTFFPSSDVPCDVKLVEKSFETDTNLNFQNLSVIGFRILLLKVAGFNLLMTLRLWSSRAKRSGSGVKQTLNFDLLKLAGDVESNPGPSRGHMTEYKPTVRLATRDDVPRAVRTLAAAFADYPATRHTVDPDRHIERVTELQELFLTRVGLDIGKVWVADDGAAVAVWTTPESVEAGAVFAEIGPRMAELSGSRLAAQQQMEGLLAPHRPKEPAWFLATVGVSPDHQGKGLGSAVVLPGVEAAERAGVPAFLETSAPRNLPFYERLGFTVTADVEVPEGPRTWCMTRKPGA
With B1, the “NFAT-GFP ASSAY Positive Cell lines: RAJI” value is recorded as “RAJI (+)”.

B2: 012417-K04 (protein)
chain: MALPVTALLLPLALLLHAARPLEGKPIPNPLLGLDSTGSGEDLKNVFPPEVAVFEPSKAEIAHTQKATLVCLATGFYPDHVELSWWVNGKEVHSGVCTDPQPLKEQPALNDSRYCLSSRLRVSATFWQNPRNHFRCQVQFYGLSENDEWTQDRAKPVTQIVSAEAWGRADCGITSASYHQGVLSATILYEILLGKATLYAVLVSALVLMAMVKRKDSRGRAKRSGSGATNFSLLKQAGDVEENPGPTSMALPVTALLLPLALLLHAARPQIVLSQSPAILSASPGEKVTMTCRASSSVSYMHWYQQKPGSSPKPWIYATSNLASGVPARFSGSGSGTSYSFTISRVEAEDAATYYCQQWTFNPPTFGGGTRLEIKRTVAAGGGGSGGGGSGGGGSQAYLQQSGAELVRPGASVKMSCKASGYTFTSYNMHWVKQTPRQGLEWIGGIYPGNGDTSYNQKFKGKATLTVGKSSSTAYMQLSSLTSEDSAVYFCARYDYNYAMDYWGQGTSVTVSSASTREQKLISEEDGSGIQNPDPAVYQLRDSKSSDKSVCLFTDFDSQTNVSQSKDSDVYITDKCVLDMRSMDFKSNSAVAWSNKSDFACANAFNNSIIPEDTFFPSSDVPCDVKLVEKSFETDTNLNFQNLSVIGFRILLLKVAGFNLLMTLRLWSSRAKRSGSGVKQTLNFDLLKLAGDVESNPGPSRGHMTEYKPTVRLATRDDVPRAVRTLAAAFADYPATRHTVDPDRHIERVTELQELFLTRVGLDIGKVWVADDGAAVAVWTTPESVEAGAVFAEIGPRMAELSGSRLAAQQQMEGLLAPHRPKEPAWFLATVGVSPDHQGKGLGSAVVLPGVEAAERAGVPAFLETSAPRNLPFYERLGFTVTADVEVPEGPRTWCMTRKPGA
For the molecule B2, the “NFAT-GFP ASSAY Positive Cell lines: RAJI” value is “RAJI (+)”.

B3: 101416-A05 (protein)
chain: MALPVTALLLPLALLLHAARPQSVLTQPPSVSGAPGQRVTISCTGSSSNIGAGFDVHWYQQLPGTAPKLLIYGNSNRPSGVPDRFSGSKSGTSASLAITGLQAEDEADYYCQSYDSSLSGYVFGTGTKVTVLGLEEQKLISEEDLGSGEDLKNVFPPEVAVFEPSKAEIAHTQKATLVCLATGFYPDHVELSWWVNGKEVHSGVCTDPQPLKEQPALNDSRYCLSSRLRVSATFWQNPRNHFRCQVQFYGLSENDEWTQDRAKPVTQIVSAEAWGRADCGITSASYHQGVLSATILYEILLGKATLYAVLVSALVLMAMVKRKDSRGRAKRSGSGATNFSLLKQAGDVEENPGPTSMDWIWRILFLVGAATGAHSFEQVQLVQSGAEVKKPGASVKVSCKASGYTFTDYYMHWVRQAPGQRLEWMGWINPNSGGTNYAQKFQDRITVTRDTSSNTGYMELTRLRSDDTAVYYCARSPYSGVLDKWGQGTLVTVSSTREQKLISEEDLGSGIQNPDPAVYQLRDSKSSDKSVCLFTDFDSQTNVSQSKDSDVYITDKCVLDMRSMDFKSNSAVAWSNKSDFACANAFNNSIIPEDTFFPSSDVPCDVKLVEKSFETDTNLNFQNLSVIGFRILLLKVAGFNLLMTLRLWSSRAKRSGSGVKQTLNFDLLKLAGDVESNPGPSRGHMTEYKPTVRLATRDDVPRAVRTLAAAFADYPATRHTVDPDRHIERVTELQELFLTRVGLDIGKVWVADDGAAVAVWTTPESVEAGAVFAEIGPRMAELSGSRLAAQQQMEGLLAPHRPKEPAWFLATVGVSPDHQGKGLGSAVVLPGVEAAERAGVPAFLETSAPRNLPFYERLGFTVTADVEVPEGPRTWCMTRKPGA
modifications: Synthetic Immune Receptor (SIR)
For B3, the “NFAT-GFP ASSAY Positive Cell lines: U266” value (SIR-expressing Jurkat-NFAT-GFP cells cocultured with U266) is listed as “U266 (+)”.

B4: 092517-F01 (protein)
chain: MALPVTALLLPLALLLHAARPLEGKPIPNPLLGLDSTGSGEDLKNVFPPEVAVFEPSKAEIAHTQKATLVCLATGFYPDHVELSWWVNGKEVHSGVCTDPQPLKEQPALNDSRYCLSSRLRVSATFWQNPRNHFRCQVQFYGLSENDEWTQDRAKPVTQIVSAEAWGRADCGITSASYHQGVLSATILYEILLGKATLYAVLVSALVLMAMVKRKDSRGRAKRSGSGATNFSLLKQAGDVEENPGPTSMALPVTALLLPLALLLHAARPDVVMTQSPSSLSASVGDRVTITCRASQDISKYLNWYQQKPGKAPKLLIYHTSRLHSGVPSRFSGSGSGTDFTLTISSLQPEDFATYYCQQGNTLPYTFGGGTKVEIKGGGGSGGGGSGGGGSQVQLQESGPGLVKPSQTLSLTCTVSGVSLPDYGVSWIRQPPGKGLEWIGVIWGSETTYYNSALKSRVLISVDTSKNQVSLKLSSVTAADTAVYYCARHYYYGGSYAMDYWGQGTTVTVSSTREQKLISEEDGSGIQNPDPAVYQLRDSKSSDKSVCLFTDFDSQTNVSQSKDSDVYITDKCVLDMRSMDFKSNSAVAWSNKSDFACANAFNNSIIPEDTFFPSSDVPCDVKLVEKSFETDTNLNFQNLSVIGFRILLLKVAGFNLLMTLRLWSSRAKRSGSGVKQTLNFDLLKLAGDVESNPGPSRGHMTEYKPTVRLATRDDVPRAVRTLAAAFADYPATRHTVDPDRHIERVTELQELFLTRVGLDIGKVWVADDGAAVAVWTTPESVEAGAVFAEIGPRMAELSGSRLAAQQQMEGLLAPHRPKEPAWFLATVGVSPDHQGKGLGSAVVLPGVEAAERAGVPAFLETSAPRNLPFYERLGFTVTADVEVPEGPRTWCMTRKPGA
As to B4, the “NFAT-GFP ASSAY Positive Cell lines: NALM6” value is “RAJI (+), NALM6 (+)” and the “NFAT-GFP ASSAY Positive Cell lines: RAJI” value is reported as “RAJI (+), NALM6 (+)”.

B5: 012417-J04 (protein)
chain: MALPVTALLLPLALLLHAARPLEGKPIPNPLLGLDSTGSGEDLKNVFPPEVAVFEPSKAEIAHTQKATLVCLATGFYPDHVELSWWVNGKEVHSGVCTDPQPLKEQPALNDSRYCLSSRLRVSATFWQNPRNHFRCQVQFYGLSENDEWTQDRAKPVTQIVSAEAWGRADCGITSASYHQGVLSATILYEILLGKATLYAVLVSALVLMAMVKRKDSRGRAKRSGSGATNFSLLKQAGDVEENPGPTSMALPVTALLLPLALLLHAARPSTVMTQSPDSLAVSLGERATINCKSSQSNSNDVAWYQQKPGQSPKVLIYFASNRYSGVPDRFSGSGYGTDFTLTISSLQAEDVAVYFCQQDYSSPLTFGAGTKLELKRADAGGGGSGGGGSGGGGSQIQLVQSGSELKKPGASVKVSCKASGYTFTNFGVNWVRQAPGKGLEWMGWINTYTGEPSYAQGFTGRFVFSLDASVSTAYLQISSLKAEDTATYFCTRRTNYYGTSYYYAMDYWGQGTTVTVSSAKTTTREQKLISEEDGSGIQNPDPAVYQLRDSKSSDKSVCLFTDFDSQTNVSQSKDSDVYITDKCVLDMRSMDFKSNSAVAWSNKSDFACANAFNNSIIPEDTFFPSSDVPCDVKLVEKSFETDTNLNFQNLSVIGFRILLLKVAGFNLLMTLRLWSSRAKRSGSGVKQTLNFDLLKLAGDVESNPGPSRGHMTEYKPTVRLATRDDVPRAVRTLAAAFADYPATRHTVDPDRHIERVTELQELFLTRVGLDIGKVWVADDGAAVAVWTTPESVEAGAVFAEIGPRMAELSGSRLAAQQQMEGLLAPHRPKEPAWFLATVGVSPDHQGKGLGSAVVLPGVEAAERAGVPAFLETSAPRNLPFYERLGFTVTADVEVPEGPRTWCMTRKPGA
Take B5: the “NFAT-GFP ASSAY Positive Cell lines: RAJI” value is “RAJI (+)”.

B6: 110217-D01 (protein)
chain: MALPVTALLLPLALLLHAARPDVVMTQSPSSLSASVGDRVTITCRASQDISKYLNWYQQKPGKAPKLLIYHTSRLHSGVPSRFSGSGSGTDFTLTISSLQPEDFATYYCQQGNTLPYTFGGGTKVEIKLEDLKNVFPPEVAVFEPCEAEISHTQKATLVCLATGFYPDHVELSWWVNGKEVHSGVSTDPQPLKEQPALNDSRYCLSSRLRVSATFWQNPRNHFRCQVQFYGLSENDEWTQDRAKPVTQIVSAEAWGRADCGFTSESYQQGVLSATILYEILLGKATLYAVLVSALVLMAMVKRKDSRGRAKRSGSGATNFSLLKQAGDVEENPGPTSMDWIWRILFLVGAATGAHSFEQVQLQESGPGLVKPSQTLSLTCTVSGVSLPDYGVSWIRQPPGKGLEWIGVIWGSETTYYNSALKSRVLISVDTSKNQVSLKLSSVTAADTAVYYCARHYYYGGSYAMDYWGQGTTVTVSSTRIQNPDPAVCQLRDSKSSDKSVCLFTDFDSQTNVSQSKDSDVYITDKTVLDMRSMDFKSNSAVAWSNKSDFACANAFNNSIIPEDTFFPSPESSCDVKLVEKSFETDTNLNFQNLSVIGFRILLLKVAGFNLLMTLRLWSS
Consider B6, for which the “NFAT-GFP ASSAY Positive Cell lines: NALM6” value is “(+/−)” and the “NFAT-GFP ASSAY Positive Cell lines: RAJI” value is “RAJI (+/−), NALM6”.
